Test results published in patent US6479237 (INSTITUT NATIONAL DE LA SANTE ET DE LA RECHERCHE MEDICALE …, dated 2002).

B1: LexA-Cdk7 (other, UniProt P0A7C2 1-202, looked up)
chain: MKALTARQQEVFDLIRDHISQTGMPPTRAEIAQRLGFRSPNAAEEHLKALARKGVIEIVSGASRGIRLLQEEEEGLPLVGRVAAGEPLLAQQHIEGHYQVDPSLFKPNADFLLRVSGMSMKDIGIMDGDLLAVHKTQDVRNGQVVVARIDDEVTVKRLKKQGNKVELLPENSEFKPIVVDLRQQSFTIEGLAVGVIRNGDWLMALDVKSRAKRYEKLDFLGEGQFATVYKARDKNTNQIVAIKKIKLGHRSEAKDGINRTALREIKLLQELSHPNIIGLLDAFGHKSNISLVFDFMETDLEVIIKDNSLVLTPSHIKAYMLMTLQGLEYLHQHWILHRDLKPNNLLLDENGVLKLADFGLAKSFGSPNRAYTHQVVTRWYRAPELLFGARMYGVGVDMWAVGCILAELLLRVPFLPGDSDLDQLTRIFETLGTPTEEQWPDMCSLPDYVTFKSFPGIPLHHIFSAAGDDLLDLIQGLFLFNPCARITATQALKMKYFSNRPGPTPGCQLPRPNCPVETLKEQSNPALAIKRKRTEALEQGGLPKKLIF
notes: Fusion protein expressed in yeast L40 from the ADH constitutive promoter; also called Lex-Cdk7

Columns and labels:
LexA-Cdk7 [1] = molecular target: B1; assay: yeast three-hybrid (L40), LexA-Cdk7 with Cyclin H expressed; growth test and β-galactosidase test
LexA-Cdk7 [2] = molecular target: B1; assay: cell-based or functional assay
VP16 fused with XPD = molecular target: T1, VP16 fused with XPD (UniProt P18074 1-760); assay: yeast three-hybrid (L40), LexA-Cdk7 with Cyclin H expressed; growth test and β-galactosidase test
T1 construct: One of the five TFIIH core sub-units put into pVP16 as specificity controls

VP16 fused with XPB = molecular target: T2, VP16 fused with XPB (UniProt P19447 1-782); assay: as above
T2 construct: One of the five TFIIH core sub-units put into pVP16 as specificity controls
T2 sequence (P19447 whole entry, the tested form may be a part): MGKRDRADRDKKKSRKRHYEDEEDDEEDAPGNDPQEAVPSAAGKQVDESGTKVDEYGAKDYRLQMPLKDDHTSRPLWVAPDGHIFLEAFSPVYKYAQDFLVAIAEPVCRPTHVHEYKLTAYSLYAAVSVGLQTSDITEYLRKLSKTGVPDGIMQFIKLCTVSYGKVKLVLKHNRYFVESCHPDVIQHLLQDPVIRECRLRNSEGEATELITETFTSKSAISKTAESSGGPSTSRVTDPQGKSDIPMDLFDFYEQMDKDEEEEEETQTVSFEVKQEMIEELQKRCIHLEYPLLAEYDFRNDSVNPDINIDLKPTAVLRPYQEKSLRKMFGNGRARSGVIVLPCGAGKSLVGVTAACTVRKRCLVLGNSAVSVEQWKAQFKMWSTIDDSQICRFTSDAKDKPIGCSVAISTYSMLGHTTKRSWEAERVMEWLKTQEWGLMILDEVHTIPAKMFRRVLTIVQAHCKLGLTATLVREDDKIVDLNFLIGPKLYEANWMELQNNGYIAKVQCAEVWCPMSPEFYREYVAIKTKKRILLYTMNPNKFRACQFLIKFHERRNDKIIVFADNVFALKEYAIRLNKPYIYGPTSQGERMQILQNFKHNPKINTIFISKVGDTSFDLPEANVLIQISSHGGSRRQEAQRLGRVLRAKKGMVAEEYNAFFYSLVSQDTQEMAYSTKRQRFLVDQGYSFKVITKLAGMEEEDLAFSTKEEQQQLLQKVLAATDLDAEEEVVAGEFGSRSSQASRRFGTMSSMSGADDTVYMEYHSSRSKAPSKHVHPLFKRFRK

Row | Binder | binding result (LexA-Cdk7 [1]) | further results
1 | VP16 alone (not containing any fused protein) (other, Negative control) STAPPTDVSLGDELHLDGEDVAMAHADALDDFDLDMLGDGDSPGPGFTPHDSAPYGALDMADFEFEQMFTDALGIDEYGG | no binding | 
2 | VP16-MAT1 (other) STAPPTDVSLGDELHLDGEDVAMAHADALDDFDLDMLGDGDSPGPGFTPHDSAPYGALDMADFEFEQMFTDALGIDEYGGMDDQGCPRCKTTKYRNPSLKLMVNVCGHTLCESCVDLLFVRGAGNCPECGTPLRKSNFRVQLFEDPTVDKEVEIRKKVLKIYNKREEDFPSLREYNDFLEEVEEIVFNLTNNVDLDNTKKKMEIYQKENKDVIQKNKLKLTREQEELEEALEVERQENEQRRLFIQKEEQLQQILKRKNKQAFLDELESSDLPVALLLAQHKDRSTQLEMQLEKPKPVKPVTFSTGIKMGQHISLAPIHKLEEALYEYQPLQIETYGPHVPELEMLGRLGYLNHVRAASPQDLAGGYTSSLACHRALQDAFSGLFWQPS |  | inhibition of the β-Gal activity by methionine (repression of Cyclin H) (LexA-Cdk7 [2]): > 6 fold
3 | B1 |  | binding result (VP16 fused with XPD): no binding; binding result (VP16 fused with XPB): no binding
4 | VP16 fused with p34 (other, One of the five TFIIH core sub-units put into pVP16 as specificity controls) MVSDEDELNLLVIVVDANPIWWGKQALKESQFTLSKCIDAVMVLGNSHLFMNRSNKLAVIASHIQESRFLYPGKNGRLGDFFGDPGNPPEFNPSGSKDGKYELLTSANEVIVEEIKDLMTKSDIKGQHTETLLAGSLAKALCYIHRMNKEVKDNQEMKSRILVIKAAEDSALQYMNFMNVIFAAQKQNILIDACVLDSDSGLLQQACDITGGLYLKVPQMPSLLQYLLWVFLPDQDQRSQLILPPPVHVDYRAACFCHRNLIEIGYVCSVCLSIFCNFSPICTTCETAFKISLPPVLKAKKKKLKVSA | no binding | 
5 | VP16 fused with p44 (other, One of the five TFIIH core sub-units put into pVP16 as specificity controls) MDEEPERTKRWEGGYERTWEILKEDESGSLKATIEDILFKAKRKRVFEHHGQVRLGMMRHLYVVVDGSRTMEDQDLKPNRLTCTLKLLEYFVEEYFDQNPISQIGIIVTKSKRAEKLTELSGNPRKHITSLKKAVDMTCHGEPSLYNSLSIAMQTLKHMPGHTSREVLIIFSSLTTCDPSNIYDLIKTLKAAKIRVSVIGLSAEVRVCTVLARETGGTYHVILDESHYKELLTHHVSPPPASSSSECSLIRMGFPQHTIASLSDQDAKPSFSMAHLDGNTEPGLTLGGYFCPQCRAKYCELPVECKICGLTLVSAPHLARSYHHLFPLDAFQEIPLEEYNGERFCYGCQGELKDQHVYVCAVCQNVFCVDCDVFVHDSLHCCPGCIHKIPAPSGV | no binding | 
